Experimental data published in patent US20220306744A1 (CRESCENDO BIOLOGICS, published 2022).

Target: T1, human PD-1 expressed on cells (CHO TREX human PD1 cell line, full-length human PD-1 sequence) (human, UniProt Q15116 21-288)
T1 construct: Also used for human PD-1 on Jurkat reporter cells, on PathHunter cells and on PHA-stimulated human CD4+ T cells; also called CHO human PD1 cells; CHO human PD-1 cells
Experiment: worded summary of the screens

T1 sequence (Q15116 21-288): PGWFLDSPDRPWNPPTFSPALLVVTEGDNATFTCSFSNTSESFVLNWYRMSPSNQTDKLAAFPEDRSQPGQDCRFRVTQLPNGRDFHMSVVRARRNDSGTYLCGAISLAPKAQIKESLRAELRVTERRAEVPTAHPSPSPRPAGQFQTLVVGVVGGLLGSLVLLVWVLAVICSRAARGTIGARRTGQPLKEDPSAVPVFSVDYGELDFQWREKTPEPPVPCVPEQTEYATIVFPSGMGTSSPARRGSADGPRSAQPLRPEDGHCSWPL

Row | binding result | Binder
1 | binds | 1.75b (VHH) VHH: EVQLVESGGGLVKPGGSLRLSCAASGFTFSDSSMTWIRQAPGKGLEWVSYISSGGGVKFYTDSVKGRFTISRDNAKNSLYLQMNSLRAEDTAVYYCAREAPLRLGESPHDAFDISGQGTMVTVSS
2 | binds | 1.77b (VHH, also called Humabody 1.77b) VHH: EVQLVESGGGLVKPGGSLRLSCAASGFTFSDSSMTWMRQAPGKGLEWVSYISSGGGVKFYTDSVKGRFTISRDNAKNSLYLQMNSLRAEDTAVYYCAREAPLRLGESPHDAFDISGQGTMVTVSS
3 | binds | 1.95b (VHH) VHH: EVQLVESGGGLVKPGGSLRLSCAASGFTFSDGSMTWMRQAPGKGLEWVSYISSGGGVKFYADSVKGRFTISRDNAKNSLYLQMNSLRAEDTAVYYCAREAPLRLGESPHDAFDISGQGTMVTVSS
4 | binds | 1.103b (VHH) VHH: EVQLVESGGGLVKPGGSLRLSCAASGFTFSDESQTWMRQAPGKGLEWVSYISSGGGVKFYTDSVKGRFTISRDNAKNSLYLQMNSLRAEDTAVYYCAREAPLRLGESPHDAFDISGQGTMVTVSS
5 | binds | 1.76b (VHH) VHH: EVQLVESGGGLVKPGGSLRLSCAASGFTFSDSSMTWIRQAPGKGLEWVSYISSGGGVKFYADSVKGRFTISRDNAKNSLYLQMNSLRADDTAVYYCAREAPLRLGESPHDAFDISGQGTMVTVSS
6 | binds | 1.99b (VHH) VHH: EVQLVESGGGLVKPGGSLRLSCAASGFTFSDRSMTWMRQAPGKGLEWVSYISSGGGVKFYADSVKGRFTISRDNAKNSLYLQMNSLRAEDTAVYYCAREAPLRLGESPHDAFDISGQGTMVTVSS
7 | binds | 1.98b (VHH) VHH: EVQLVESGGGLVKPGGSLRLSCAASGFTFSDKSMTWMRQAPGKGLEWVSYISSGGGVKFYADSVKGRFTISRDNAKNSLYLQMNSLRAEDTAVYYCAREAPLRLGESPHDAFDISGQGTMVTVSS
8 | binds | 1.88b (VHH) VHH: EVQLVESGGGLVKPGGSLRLSCAASGFTFSDRSMTWMRQAPGKGLEWVSYISSGGGVKFYTDSVKGRFTISRDNAKNSLYLQMNSLRAEDTAVYYCAREAPLRLGESPHDAFDISGQGTMVTVSS
9 | binds | 1.79b (VHH) VHH: EVQLVESGGGLVKPGGSLRLSCAASGFTFSDSSMTWKRQAPGKGLEWVSYISSGGGVKFYADSVKGRFTISRDNAKNSLYLQMNSLRAEDTAVYYCAREAPLRLGESPHDAFDISGQGTMVTVSS
10 | binds | 1.91b (VHH) VHH: EVQLVESGGGLVKPGGSLRLSCAASGFTFSDQSMTWMRQAPGKGLEWVSYISSGGGVKFYADSVKGRFTISRDNAKNSLYLQMNSLRAEDTAVYYCAREAPLRLGESPHDAFDISGQGTMVTVSS
11 | binds | 1.104b (VHH) VHH: EVQLVESGGGLVKPGGSLRLSCAASGFTFSDESFTWMRQAPGKGLEWVSYISSGGGVKFYTDSVKGRFTISRDNAKNSLYLQMNSLRAEDTAVYYCAREAPLRLGESPHDAFDISGQGTMVTVSS
12 | binds | 1.83b (VHH) VHH: EVQLVESGGGLVKPGGSLRLSCAASGFTFSDESMTWFRQAPGKGLEWVSYISSGGGVKFYTDSVKGRFTISRDNAKNSLYLQMNSLRAEDTAVYYCAREAPLRLGESPHDAFDISGQGTMVTVSS
13 | binds | 1.92b (VHH, also called Humabody 1.92b) VHH: EVQLVESGGGLVKPGGSLRLSCAASGFTFSDESMTWMRQAPGKGLEWVSYISSGGGVKFYADSVKGRFTISRDNAKNSLYLQMNSLRAEDTAVYYCAREAPLRLGESPHDAFDISGQGTMVTVSS
14 | binds | 1.87b (VHH) VHH: EVQLVESGGGLVKPGGSLRLSCAASGFTFSDKSMTWMRQAPGKGLEWVSYISSGGGVKFYTDSVKGRFTISRDNAKNSLYLQMNSLRAEDTAVYYCAREAPLRLGESPHDAFDISGQGTMVTVSS
15 | binds | 1.106b (VHH) VHH: EVQLVESGGGLVKPGGSLRLSCAASGFTFSDESKTWMRQAPGKGLEWVSYISSGGGVKFYTDSVKGRFTISRDNAKNSLYLQMNSLRAEDTAVYYCAREAPLRLGESPHDAFDISGQGTMVTVSS
16 | binds | 1.105b (VHH) VHH: EVQLVESGGGLVKPGGSLRLSCAASGFTFSDESLTWMRQAPGKGLEWVSYISSGGGVKFYTDSVKGRFTISRDNAKNSLYLQMNSLRAEDTAVYYCAREAPLRLGESPHDAFDISGQGTMVTVSS

Row | binding result | Binder
17 | binds | 1.82b (VHH) VHH: EVQLVESGGGLVKPGGSLRLSCAASGFTFSDTSMTWMRQAPGKGLEWVSYISSGGGVKFYTDSVKGRFTISRDNAKNSLYLQMNSLRAEDTAVYYCAREAPLRLGESPHDAFDISGQGTMVTVSS
18 | binds | 1.96b (VHH) VHH: EVQLVESGGGLVKPGGSLRLSCAASGFTFSDTSMTWMRQAPGKGLEWVSYISSGGGVKFYADSVKGRFTISRDNAKNSLYLQMNSLRAEDTAVYYCAREAPLRLGESPHDAFDISGQGTMVTVSS
19 | binds | 1.101b (VHH) VHH: EVQLVESGGGLVKPGGSLRLSCAASGFTFSDFSMTWMRQAPGKGLEWVSYISSGGGVKFYADSVKGRFTISRDNAKNSLYLQMNSLRAEDTAVYYCAREAPLRLGESPHDAFDISGQGTMVTVSS
20 | binds | 1.81b (VHH) VHH: EVQLVESGGGLVKPGGSLRLSCAASGFTFSDSSMTWVRQAPGKGLEWVSYISSGGGVKFYADSVKGRFTISRDNAKNSLYLQMNSLRAEDTAVYYCAREAPLRLGESPHDAFDISGQGTMVTVSS
21 | binds | 1.84b (VHH) VHH: EVQLVESGGGLVKPGGSLRLSCAASGFTFSDESMTWMRQAPGKGLEWVSYISSGGGVKFYTDSVKGRFTISRDNAKNSLYLQMNSLRAEDTAVYYCAREAPLRLGESPHDAFDISGQGTMVTVSS
22 | binds | 1.102b (VHH) VHH: EVQLVESGGGLVKPGGSLRLSCAASGFTFSDESVTWMRQAPGKGLEWVSYISSGGGVKFYTDSVKGRFTISRDNAKNSLYLQMNSLRAEDTAVYYCAREAPLRLGESPHDAFDISGQGTMVTVSS
23 | binds | 1.100b (VHH) VHH: EVQLVESGGGLVKPGGSLRLSCAASGFTFSDLSMTWMRQAPGKGLEWVSYISSGGGVKFYADSVKGRFTISRDNAKNSLYLQMNSLRAEDTAVYYCAREAPLRLGESPHDAFDISGQGTMVTVSS
24 | binds | 1.86b (VHH) VHH: EVQLVESGGGLVKPGGSLRLSCAASGFTFSDASMTWMRQAPGKGLEWVSYISSGGGVKFYTDSVKGRFTISRDNAKNSLYLQMNSLRAEDTAVYYCAREAPLRLGESPHDAFDISGQGTMVTVSS
25 | binds | 1.94b (VHH) VHH: EVQLVESGGGLVKPGGSLRLSCAASGFTFSDWSMTWMRQAPGKGLEWVSYISSGGGVKFYADSVKGRFTISRDNAKNSLYLQMNSLRAEDTAVYYCAREAPLRLGESPHDAFDISGQGTMVTVSS
26 | binds | 1.80b (VHH) VHH: EVQLVESGGGLVKPGGSLRLSCAASGFTFSDSSMTWMRQAPGKGLEWVSYISSGGGVKFYADSVKGRFTISRDNAKNSLYLQMNSLRAEDTAVYYCAREAPLRLGESPHDAFDISGQGTMVTVSS
27 | binds | 1.85b (VHH) VHH: EVQLVESGGGLVKPGGSLRLSCAASGFTFSDYSMTWMRQAPGKGLEWVSYISSGGGVKFYTDSVKGRFTISRDNAKNSLYLQMNSLRAEDTAVYYCAREAPLRLGESPHDAFDISGQGTMVTVSS
28 | binds | 1.90b (VHH) VHH: EVQLVESGGGLVKPGGSLRLSCAASGFTFSDVSMTWMRQAPGKGLEWVSYISSGGGVKFYADSVKGRFTISRDNAKNSLYLQMNSLRAEDTAVYYCAREAPLRLGESPHDAFDISGQGTMVTVSS
29 | binds | 1.97b (VHH) VHH: EVQLVESGGGLVKPGGSLRLSCAASGFTFSDISMTWMRQAPGKGLEWVSYISSGGGVKFYADSVKGRFTISRDNAKNSLYLQMNSLRAEDTAVYYCAREAPLRLGESPHDAFDISGQGTMVTVSS
30 | binds | 1.89b (VHH) VHH: EVQLVESGGGLVKPGGSLRLSCAASGFTFSDYSMTWMRQAPGKGLEWVSYISSGGGVKFYADSVKGRFTISRDNAKNSLYLQMNSLRAEDTAVYYCAREAPLRLGESPHDAFDISGQGTMVTVSS
31 | binds | 1.93b (VHH) VHH: EVQLVESGGGLVKPGGSLRLSCAASGFTFSDASMTWMRQAPGKGLEWVSYISSGGGVKFYADSVKGRFTISRDNAKNSLYLQMNSLRAEDTAVYYCAREAPLRLGESPHDAFDISGQGTMVTVSS
32 | binds | 1.78b (VHH) VHH: EVQLVESGGGLVKPGGSLRLSCAASGFTFSDSSMTWIRQAPGKGLEWVSYISSGGGVKFYADSVKGRFTISRDNAKNSLYLQMNSLRAEDTAVYYCAREAPLRLGESPHDAFDISGQGTMVTVSS
